Each block holds one binder with its values, some of them ahead of it. *1 amine or outer side, *2 acyl side, *3 side chain or, on linkers, in order; H or OH if unused. [ ]: non-standard residue; d: D form. Lys(DOTA) = Lys with DOTA chelator on the side chain; Oic = O=C(O)[C@@H]1C[C@@H]2CCCC[C@@H]2N1; d2Nal = N[C@H](Cc1ccc2ccccc2c1)C(=O)O; Glutaryl = O=C(CCCC(=O)[*:2])[*:1]; αMeF = C[C@](N)(Cc1ccccc1)C(=O)O; Ttds = non-natural spacer; Orn = NCCC[C@H](N)C(=O)O; 1206 = not defined here; GABA = NCCCC(=O)O
Molecular target: T1, bradykinin B1 receptor (human) (UniProt P46663)
T1 sequence (looked up): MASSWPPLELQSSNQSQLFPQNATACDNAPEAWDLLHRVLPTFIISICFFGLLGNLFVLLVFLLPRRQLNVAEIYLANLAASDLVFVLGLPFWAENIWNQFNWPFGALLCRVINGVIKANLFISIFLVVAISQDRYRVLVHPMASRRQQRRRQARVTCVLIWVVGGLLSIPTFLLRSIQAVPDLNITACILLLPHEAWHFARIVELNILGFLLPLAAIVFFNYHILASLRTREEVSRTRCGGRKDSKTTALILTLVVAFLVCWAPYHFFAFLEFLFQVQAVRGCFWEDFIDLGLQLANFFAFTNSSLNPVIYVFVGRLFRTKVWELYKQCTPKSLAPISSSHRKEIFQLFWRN
Test: radioligand displacement: 0.35 nM [3H]desArg10-KD on human B1R from CHO cells, compound at 100 nM

- Inhibition [at 100 nM, %]: 20%
B1: 1206-Glutar-Ttds-Lys(DOTA)-Ttds-GABA-Lys-Arg-Pro-Hyp-Gly-Cha-Ser-Pro-Leu-OH (peptide)
peptide: KRPXGXSPL
modifications: position 4 = Hyp (hydroxyproline); position 6 = Cha (cyclohexylalanine); N-terminus of Lys1 acylated with 1206-Glutar-Ttds-Lys(DOTA)-Ttds-GABA- (1206 = non-peptide NTR1 antagonist moiety; DOTA on the Lys side chain); free C-terminal …

- Inhibition [at 100 nM, %]: 17%
B2: 1206-Glutar-Ttds-Lys(DOTA)-Ttds-GABA-Orn-Arg-Oic-Pro-Gly-Amf-Ser-nal-Ile-OH (peptide)
peptide: {1206-Glutaryl-Ttds-Lys(DOTA)-Ttds-GABA}-[Orn]R[Oic]PG[αMeF]S[d2Nal]I-OH
modifications: reading uncertain; also: printed as 1206-Glutar-Ttds-Lys(DOTA)-Ttds-GABA-Orn-Arg-Oic-Pro-Gly-Amf-Ser-nal-Ile-OH
